From patent publication US20230201322A1 (ENTEROME S A, published 2023)

B1: reference human peptide derived from MMP2, MMP2-H (GLPPDVQRV) (peptide)
peptide: GLPPDVQRV
B2: antigenic peptide MAGE C1B (KLVEWLAML) (peptide)
peptide: KLVEWLAML
B3: antigenic peptide ERBB2-3B4 (ILLGVVFGI) (peptide)
peptide: ILLGVVFGI
B4: antigenic peptide ERBB2-1B (RLLEETDLV) (peptide)
peptide: RLLEETDLV
B5: antigenic peptide MMP2-B (SLPPDVQQV) (peptide)
peptide: SLPPDVQQV
B6: antigenic peptide ERBB2-3B1 (VMLGVVFGV) (peptide)
peptide: VMLGVVFGV
B7: antigenic peptide ERBB2-3B3 (VMLGVVFGI) (peptide)
peptide: VMLGVVFGI
B8: antigenic peptide STEAP-B1 (MLAVFLPLV) (peptide)
peptide: MLAVFLPLV
B9: reference human peptide derived from MAGE C1, MAGE C1H (KVVEFLAML) (peptide)
peptide: KVVEFLAML
B10: reference human peptide derived from STEAP, STEAP-H (MIAVFLPIV) (peptide)
peptide: MIAVFLPIV
B11: antigenic peptide PMEL-B (ITSDVPFSV) (peptide)
peptide: ITSDVPFSV
B12: antigenic peptide STEAP-B2 (YLAVFLPIV) (peptide)
peptide: YLAVFLPIV

biological target: T1, HLA-A*0201 molecule expressed on the human tumoral cell T2 (human); experiment: T2 cell HLA-A2 FACS (BB7.2-PE), peptide titration
T1 construct: Empty or peptide-receptive class I molecule on T2 cells; surface level read with anti-HLA-A2 antibody BB7.2-PE after incubation with the peptide; also called HLA-A2
Experimental: (§1) T2 cells (2·10⁵ cells per well) are incubated with decreasing concentrations of peptides from 100 μM to 0.1 μM in a AIMV medium supplemented with 100 ng/μl of human β2m at 37° C. for 16 hours. Cells are then washed two times and marked with the anti-HLA-A2 antibody coupled to PE (clone BB7.2, BD Pharmagen).
(§2) The relative affinity is then determined as follows: […]

| Binder | Conc. inducing 20% of HLA-A2 expression |
| --- | --- |
| B1 | 1.76 µM |
| B2 | 30.9 µM |
| B3 | 0.9 µM |
| B4 | 9.5 µM |
| B5 | 0.88 µM |
| B6 | 9 µM |
| B7 | 12.5 µM |
| B8 | 5 µM |
| B9 | 60.1 µM |
| B10 | 33.5 µM |
| B11 | 18.2 µM |
| B12 | 8.22 µM |

biological target: T1, HLA-A*0201 molecule expressed on the …; experiment: T2 cell HLA-A2 FACS (BB7.2-PE), peptide 100 µM
Experimental: as §1, §2

| Binder | HLA-A2 labelling as % of reference peptide HIV pol 589-597 at 100 µM |
| --- | --- |
| B1 | 154% |
| B2 | 109% |
| B3 | 265% |
| B4 | 297% |
| B5 | 131% |
| B6 | 122% |
| B7 | 179% |
| B8 | 132% |
| B9 | 32.3% |
| B10 | 102% |
| B11 | 74.8% |
| B12 | 97.9% |

biological target: T1, HLA-A*0201 molecule expressed on the …; experiment: T2 cell HLA-A2 FACS (BB7.2-PE), peptide 0.1 µM
Experimental: as §1, §2

| Binder | HLA-A2 labelling as % of reference peptide HIV pol 589-597 at 100 µM |
| --- | --- |
| B1 | 5.41% |
| B2 | 2.45% |
| B3 | -11.6% |
| B4 | -1.18% |
| B5 | 4.69% |
| B6 | -16% |
| B7 | -16.3% |
| B8 | 6.67% |
| B9 | 5.77% |
| B10 | 0.11% |
| B11 | 4.69% |
| B12 | -0.34% |

biological target: T1, HLA-A*0201 molecule expressed on the …; experiment: T2 cell HLA-A2 FACS (BB7.2-PE), peptide 10 µM
Experimental: as §1, §2

| Binder | HLA-A2 labelling as % of reference peptide HIV pol 589-597 at 100 µM |
| --- | --- |
| B1 | 66.3% |
| B2 | 21.4% |
| B3 | 138% |
| B4 | 26.4% |
| B5 | 96% |
| B6 | 26.7% |
| B7 | 16.6% |
| B8 | 45.1% |
| B9 | 7.84% |
| B10 | 14.9% |
| B11 | 7.93% |
| B12 | 27.7% |

biological target: T1, HLA-A*0201 molecule expressed on the …; experiment: T2 cell HLA-A2 FACS (BB7.2-PE), peptide 1 µM
Experimental: as §1, §2

| Binder | HLA-A2 labelling as % of reference peptide HIV pol 589-597 at 100 µM |
| --- | --- |
| B1 | 17.8% |
| B2 | 3.97% |
| B3 | 26.1% |
| B4 | 2.86% |
| B5 | 24.6% |
| B6 | -12.9% |
| B7 | -10.6% |
| B8 | 8.92% |
| B9 | 7.12% |
| B10 | -4.47% |
| B11 | 3.62% |
| B12 | 4.87% |

biological target: T1, HLA-A*0201 molecule expressed on the …; experiment: T2 cell HLA-A2 FACS (BB7.2-PE); ratio of 20% concentrations against HIV pol 589-597
Experimental: as §1, §2

| Binder | Relative affinity |
| --- | --- |
| B1 | 0.06 |
| B2 | 0.31 |
| B3 | 0.03 |
| B4 | 0.26 |
| B5 | 0.03 |
| B6 | 0.25 |
| B7 | 0.35 |
| B8 | 0.16 |
| B9 | 1.94 |
| B10 | 1.08 |
| B11 | 0.59 |
| B12 | 0.27 |
